Data on nine molecules can be found in US20070031849A1, “Three-dimensional structure of DNA recombination/repair protein and use thereof” (priority 2001, published 2007).

First the molecules themselves.
B1: R55A: point mutant of HsRad521-212, arginine at position 55 substituted with alanine (protein)
chain: MSGTEEAILGGRDSHPAAGGGSVLCFGQCQYTAEEYQAIQKALRQRLGPEYISSAMAGGGQKVCYIEGHRVINLANEMFGYNGWAHSITQQNVDFVDLNNGKFYVGVCAFVRVQLKDGSYHEDVGYGVSEGLKSKALSLEKARKEAVTDGLKRALRSFGNALGNCILDKDYLRSLNKLPRQLPLEVDLTKAKRQDLEPSVEEARYNSCRPNMALGHPQLQQVTSPSRPSHAVIPADQDCSSRSLSSSAVESEATHQRKLRQKQLQQQFRERMEKQQVRVSTPSAEKSEAAPPAPPVTHSTPVTVSEPLLEKDFLAGVTQELIKTLEDNSEKWAVTPDAGDGVVKPSSRADPAQTSDTLALNNQMVTQNRTPHSVCHQKPQAKSGSWDLQTYSADQRTTGNWESHRKSQDMKKRKYDPS
B2: H69A: point mutant of HsRad521-212, histidine at position 69 substituted with alanine (protein)
chain: B1 chain with A55R, H69A
B3: Y65A: point mutant of HsRad521-212, tyrosine at position 65 substituted with alanine (protein)
chain: B1 chain with A55R, Y65A
B4: R70A: point mutant of HsRad521-212, arginine at position 70 substituted with alanine (protein)
chain: B1 chain with A55R, R70A

Positions count from the first letter of the chain named. Names and notes keep the numbering of the source.

The subject of the first series is SAT-1 single-stranded DNA. Description: Gel shift assay: single-stranded DNA binding of HsRad521-212 point mutants. Conditions: 0.25 to 2 μM mutant; compared with wild type HsRad521-212. Here is the method: The single-stranded and double-stranded DNAs binding activities of the six types of point mutants thus prepared from HsRad521-212 were detected by gel shift assay method. The substrate DNA used by the method was prepared as described below. The pGsat4 of double-stranded DNA was prepared by inserting a 198-bp DNA fragment from human α-satellite into a plasmid PGEM-T East vector (manufactured by Promega). The 3.2-kb plasmid DNA was prepared by a gentle lysis method using sarcosyl, without alkali modification of the host E. coli, so as to avoid the irreversible denaturation. As the single-stranded DNA, a 50-base oligonucleotide purified by HPLC as shown in SEQ ID NO:2 was purchased from Roche Biochemical.
The 5′ terminus of the oligonucleotide was labeled with radioactivity in the presence of [γ^32P] ATP using T4 polynucleotide kinase (New England Biolabs) and then purified on a column Chromaspin-10 (manufactured by Clontech).
For gel shift assay, a reaction mixtures containing final concentratins of 50 mM Hepes-KOH (pH 7.5), 40 mM KCl, 1 mM MgCl2, 0.1 mg/ml BSA, 1 mM DTT, 2% glycerol and 0.25 to 2 μM mutants of HsRad521-212 was used. For single-stranded DNA binding assay, 1 μl of 1 μM ^32P-labeled SAT-1 single-stranded DNA (nucleotide) was mixed with 9 μl of the reaction mixture, which was incubated at 37° C. for 5 minutes. Subsequently, 1 μl of 12% […] solution was added, to immobilize HsRad52 and the single-stranded DNA. After incubating for 20 minutes, a 6-fold volume of staining solution for electrophoresis was added. The reaction mixture was resolved by 1% agarose gel electrophoresis in 0.5×TBE buffer at 3.3 V/cm and ambient temperature. After electrophoresis, the gel was dried for detection by autoradiography. The amount of the free single-stranded DNA was assayed by an image analyzer BAS2500 manufactured by Fuji Film. […] Compared with the wild type HsRad521-212, the single-stranded DNA binding activity of all of the point mutants was lowered.
(In EMSA bound probe runs differently from free probe, usually more slowly.)
In the case of B1, the “Single-stranded DNA binding activity” value is on record as “lost most of the binding activity to the single-stranded DNA”.
B2: the “Single-stranded DNA binding activity” value was “lost most of the binding activity to the single-stranded DNA”.
With B3, the “Single-stranded DNA binding activity” value was “lost most of the binding activity to the single-stranded DNA”.
Same read-out and setting: then B4, with “lost most of the binding activity to the single-stranded DNA”.

The next series addresses T1, HsRad52 protein (HsRad521-212) (Homo sapiens, UniProt P43351).
T1 construct: hexahistidine (N, cleaved yes); made in house; host or cells: E. coli JM109 (DE3), pET15-b
T1 sequence (P43351 1-212): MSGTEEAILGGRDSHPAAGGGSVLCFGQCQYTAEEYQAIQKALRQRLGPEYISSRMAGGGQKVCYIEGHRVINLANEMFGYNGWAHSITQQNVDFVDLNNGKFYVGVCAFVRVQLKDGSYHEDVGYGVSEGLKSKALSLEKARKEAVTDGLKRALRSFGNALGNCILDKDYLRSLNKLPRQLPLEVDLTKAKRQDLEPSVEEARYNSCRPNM
Description: Screening for HsRad52-binding compounds by one-dimensional 1H-NMR. To be noted: calculated from signal intensity of the NMR spectrum; binding force of Compound A defined as 1. The protocol:
Among the ligand candidate compounds obtained in Example 8, one candidate compound was in view of the binding free energy change (ΔG) obtained by AutoDock and solubility. The compound was dissolved in DMSO-d6 to be adjusted to 455.7 μM. The HsRad521-212 protein prepared in Example 3 was dissolved to 152 μM using buffer solution A (dissolved in heavy water to 10 mM Tris-dll, pH 7.5)/200 mM KCl). Using them, two types of samples namely the ligand candidate compound alone and the ligand candidate compound to which the HsRad52 protein was added at 1:1 were prepared.
The final concentration of the ligand candidate compound is 21.7 μM.
The final concentrations of the ligand candidate compound and the HsRad52 protein are 21.7 μM, respectively.
One-dimensional ^1H-NMR of the individual samples was measured, to observe whether or not any change existed between prior to and after the addition of HsRad52 protein. Consequently, the NMR spectrum of a sample of ID AK968-41170131 with a chemical name of cis-6-[4-(4-isobutyl-phenyl)-5-methyl-thiazol-2-ylcarbamoyl]-3,4-dimethyl-cyclohex-3-enec arboxylic acid (Compound A, −11.71 kcal/mol) as such ligand candidate compound is shown in FIGS. 5 through 7. […] In FIG. 6, a slight increase of the base line due to the mixing with the protein can be observed, but apparently, Compound A-derived two signals around 7.5 ppm disappeared.
Herein, all the NMR spectra were taken in deuterium, using Bruker DRX500 NMR spectrophotometer at 298 K.
Using such method, the plural ligand candidate compounds obtained in Example 8 were adjusted to various concentrations to measure the NMR spectra. Compounds detected with the interaction with HsRad52 are shown below in Table 4. Herein, the strength of a binding force relatively calculated from the signal intensity of the NMR spectrum is shown as relative binding force, provided that the binding force of the Compound A is defined as 1.
As to `CCCCc1ccc(-c2nc(NC(=O)C3C4CCC(O4)C3C(=O)O)sc2C)cc1` (stereo not drawn) [C, 3-[4-(4-Butyl-phenyl)-5-methyl-thiazol-2-ylcarbamoyl]-7-oxa-bicyclo[2.2.1]heptane-2-carboxylic acid], the “Relative Binding force” value is 0.5.
The same measure, in the same setting: next, `CC1=C(C)CC(C(=O)Nc2nc(-c3ccc(C(C)C)cc3)c(C)s2)C(C(=O)O)C1` (stereo not drawn) [Compound B, 6-[4-(4-Isopropyl-phenyl)-5-methyl-thiazol-2-ylcarbamoyl]-3,4-dimethyl-cyclohex-3-enecarboxylic acid]: 0.5.
Still for that read-out and setting: next, `CC1=C(C)CC(C(=O)Nc2nc(-c3ccc(C)cc3C)c(C)s2)C(C(=O)O)C1` (stereo not drawn) [D, 6-[4-(2,4-Dimethyl-phenyl)-5-methyl-thiazol-2-ylcarbamoyl]-3,4-dimethyl-cyclohex-3-enecarboxylic acid]: 0.2.
Same read-out and setting: next, `CCCc1ccc(-c2nc(NC(=O)C3CC(C)=C(C)CC3C(=O)O)sc2C)cc1` (stereo not drawn) [E, 3,4-Dimethyl-6-[5-methyl-4-(4-propyl-phenyl)-thiazol-2-ylcarbamoyl]-cyclohex-3-enecarboxylic acid]: 0.5.

A further series deals with T2, HsRad52(1-212) wild type (Homo sapiens, UniProt P43351 SEQ:1-212).
T2 sequence: T1 sequence (P43351 1-212)
Briefly: EMSA; 50 mM Hepes-KOH pH 7.5, 40 mM KCl, 1 mM MgCl2, 37 C, glutaraldehyde fixed; 0.25-2 uM protein; complex formation inhibited by Compound A. To be noted: tags: His6 removed by thrombin; chain copies: 11 (undecameric ring, stated); label: 5'-32P.
Description: For gel shift assay, a reaction mixtures containing final concentratins of 50 mM Hepes-KOH (pH 7.5), 40 mM KCl, 1 mM MgCl₂, 0.1 mg/ml BSA, 1 mM DTT, 2% glycerol and 0.25 to 2 μM mutants of HsRad52₁₋₂₁₂ was used. For single-stranded DNA binding assay, 1 μl of 1 μM ³²P-labeled SAT-1 single-stranded DNA (nucleotide) was mixed with 9 μl of the reaction mixture, which was incubated at 37° C. for 5 minutes. Subsequently, 1 μl of 12% glyceraldehyde solution was added, to immobilize HsRad52 and the single-stranded DNA. After incubating for 20 minutes, a 6-fold volume of staining solution for electrophoresis was added. The reaction mixture was resolved by 1% agarose gel electrophoresis in 0.5×TBE buffer at 3.3 V/cm and ambient temperature. After electrophoresis, the gel was dried for detection by autoradiography. The amount of the free single-stranded DNA was assayed by an image analyzer BAS2500 manufactured by Fuji Film.
Subsequently, the mixture was fixed with 0.2% glutaraldehyde for 20 minutes and electrophoresed on 1% agarose gel.
In the case of ATTTCATGCTAGACAGAAGAATTCTCAGTAACTTCTTTGTGCTGTGTGTA (ssDNA) [SAT-1 50-mer], the binding result was “binds”.
